From patent US20260201008A1, “SECRETIN-DERIVED GLP1R SELECTIVE AGONISTS” (GUBRA A/S, priority 2023, published 2026)
Like-named read-outs stand apart in the source and are kept apart here. Numbered stars: 1 amine (or outer) side, 2 acyl side, 3 side chain; on linkers, the order of the positions; unused ones are H or OH. Square brackets hold non-standard residues; d marks the D form. Side chains are listed from the residue outwards. Ends that are not written are not given here. * marks the point of attachment. C20 diacid = O=C(O)CCCCCCCCCCCCCCCCCCC(=O)*; C18 diacid = O=C(O)CCCCCCCCCCCCCCCCC(=O)*; γGlu = O=C(O)[C@H](CCC(=O)[*:2])N[*:1]; AEEA = NCCOCCOCC(=O)O; Aib = CC(C)(N)C(=O)O

What was measured:
Assay in all cases: cell-based or functional assay
[1] = target: T1, human secretin receptor (hSCTR) (human, UniProt P47872 23-440)
[2] = target: T2, human GLP-1 receptor (hGLP1R) (human, UniProt P43220 24-463)
[3] = target: T1, human secretin receptor (hSCTR); remark: listed apart in the source
[4] = target: T2, human GLP-1 receptor (hGLP1R); remark: listed apart in the source
[5] = target: T1, human secretin receptor (hSCTR); remark: listed apart in the source
[6] = target: T2, human GLP-1 receptor (hGLP1R); remark: listed apart in the source

T1 sequence (P47872 23-440): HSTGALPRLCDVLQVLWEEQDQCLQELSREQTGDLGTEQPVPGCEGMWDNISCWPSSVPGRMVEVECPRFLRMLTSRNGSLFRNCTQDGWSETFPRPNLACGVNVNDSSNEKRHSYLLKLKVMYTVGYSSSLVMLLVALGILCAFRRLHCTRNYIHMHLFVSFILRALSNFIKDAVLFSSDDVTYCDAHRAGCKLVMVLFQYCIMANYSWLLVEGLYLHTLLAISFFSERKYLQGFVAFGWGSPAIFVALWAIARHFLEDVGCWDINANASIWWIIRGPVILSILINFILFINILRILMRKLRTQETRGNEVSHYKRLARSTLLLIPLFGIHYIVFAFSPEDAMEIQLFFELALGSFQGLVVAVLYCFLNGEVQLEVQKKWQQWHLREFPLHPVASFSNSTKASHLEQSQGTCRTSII

Binder	hSCTR EC50 nM (purified peptide) [1]	hSCTR pEC50 (purified peptide) [1]	hGLPR1 EC50 nM (purified peptide) [2]	hGLPR1 PEC50 (purified peptide) [2]	pEC50 hSCTR [3]	pEC50 hGLPR1 [4]	pEC50 hSCTR [5]	PEC50 hGLPR1 [6]
H[Aib]EGTFTSDVSELK([AEEA-AEEA-γGlu-C20 diacid])EEA[Aib]LQRFLEHLV-NH2 [SEQ ID NO: 168]	100 nM	7 -log M	0.012 nM	10.9 -log M	7.3 -log M	11.2 -log M		
H[Aib]EGTFTSDVSYLK([AEEA-AEEA-γGlu-C20 diacid])EEA[Aib]LQRFLEHLV-NH2 (also: table footnote: C20DA or C18DA) [SEQ ID NO: 203]	190 nM	6.7 -log M	0.017 nM	10.8 -log M	6.7 -log M	10.7 -log M		
H[Aib]EGTFTSDVSRLK([AEEA-AEEA-γGlu-C18 diacid])EGAAEQRFLQHLVEAE-NH2 [SEQ ID NO: 204]							5.6 -log M	11 -log M
H[Aib]EGTFTSDVSRLK([AEEA-AEEA-γGlu-C18 diacid])EGAAEQRFLQHLVEAA-NH2 [SEQ ID NO: 205]							5.3 -log M	11.1 -log M
H[Aib]EGTFTSDVSRLK([AEEA-AEEA-γGlu-C18 diacid])EGAAEQRFLQHLVAAE-NH2 [SEQ ID NO: 206]							5.3 -log M	10.8 -log M
H[Aib]EGTFTSDVSRLK([AEEA-AEEA-γGlu-C20 diacid])EEAALQRFLEHLVEAA-NH2 [SEQ ID NO: 207]							8.2 -log M	11 -log M
H[Aib]EGTFTSDVSRLK([AEEA-AEEA-γGlu-C20 diacid])EEA[Aib]LQRFLEHLVEAA-NH2 [SEQ ID NO: 208]	24 nM	7.6 -log M	0.022 nM	10.6 -log M			7.6 -log M	10.6 -log M
H[Aib]EGTFTSDVSYLK([AEEA-AEEA-γGlu-C20 diacid])EEA[Aib]LQRFLEHLVEAA-NH2 (N-terminus assumed; SMILES CC(C)C[C@H](NC(=O)[C@H](Cc1ccccc1)NC(=O)[C@H](CCCNC(=N)N)NC(=O)[C@H](CCC(N)=O)NC(=O)[C@H](CC(C)C)NC(=O)C(C)(C)NC(=O)[C@H](C)NC(=O)[C@H](CCC(=O)O)NC(=O)[C@H](CCC(=O)O)NC(=O)[C@H](CCCCNC(=O)COCCOCCNC(=O)COCCOCCNC(=O)CC[C@H](NC(=O)CCCCCCCCCCCCCCCCCCC(=O)O)C(=O)O)NC(=O)[C@H](CC(C)C)NC(=O)[C@H](Cc1ccc(O)cc1)NC(=O)[C@H](CO)NC(=O)[C@@H](NC(=O)[C@H](CC(=O)O)NC(=O)[C@H](CO)NC(=O)[C@@H](NC(=O)[C@H](Cc1ccccc1)NC(=O)[C@@H](NC(=O)CNC(=O)[C@H](CCC(=O)O)NC(=O)C(C)(C)NC(=O)[C@@H](N)Cc1c[nH]cn1)[C@@H](C)O)[C@@H](C)O)C(C)C)C(=O)N[C@@H](CCC(=O)O)C(=O)N[C@@H](Cc1c[nH]cn1)C(=O)N[C@@H](CC(C)C)C(=O)N[C@H](C(=O)N[C@@H](CCC(=O)O)C(=O)N[C@@H](C)C(=O)N[C@@H](C)C(N)=O)C(C)C) [SEQ ID NO: 209]	330 nM	6.5 -log M	0.0098 nM	11 -log M			6.4 -log M	10.9 -log M
H[Aib]EGTFTSDVSELK([AEEA-AEEA-γGlu-C20 diacid])EEA[Aib]LQRFLEHLVEAA-NH2 [SEQ ID NO: 210]	190 nM	6.7 -log M	0.0095 nM	11 -log M			6.8 -log M	11 -log M
H[Aib]EGTFTSDVSTLK([AEEA-AEEA-γGlu-C20 diacid])EEA[Aib]LQRFLEHLVEAA-NH2 [SEQ ID NO: 211]							7.1 -log M	11.2 -log M
H[Aib]EGTFTSDVSRLLEEA[Aib]LQRFLEK([AEEA-AEEA-γGlu-C20 diacid])LVEAA-NH2 [SEQ ID NO: 212]	60 nM	7.2 -log M	0.021 nM	10.7 -log M			7.2 -log M	10.7 -log M
H[Aib]EGTFTSDVSYLLEEA[Aib]LQRFLEK([AEEA-AEEA-γGlu-C20 diacid])LVEAA-NH2 (N-terminus assumed; SMILES CC(C)C[C@H](NC(=O)[C@H](CC(C)C)NC(=O)[C@H](Cc1ccc(O)cc1)NC(=O)[C@H](CO)NC(=O)[C@@H](NC(=O)[C@H](CC(=O)O)NC(=O)[C@H](CO)NC(=O)[C@@H](NC(=O)[C@H](Cc1ccccc1)NC(=O)[C@@H](NC(=O)CNC(=O)[C@H](CCC(=O)O)NC(=O)C(C)(C)NC(=O)[C@@H](N)Cc1c[nH]cn1)[C@@H](C)O)[C@@H](C)O)C(C)C)C(=O)N[C@@H](CCC(=O)O)C(=O)N[C@@H](CCC(=O)O)C(=O)N[C@@H](C)C(=O)NC(C)(C)C(=O)N[C@@H](CC(C)C)C(=O)N[C@@H](CCC(N)=O)C(=O)N[C@@H](CCCNC(=N)N)C(=O)N[C@@H](Cc1ccccc1)C(=O)N[C@@H](CC(C)C)C(=O)N[C@@H](CCC(=O)O)C(=O)N[C@@H](CCCCNC(=O)COCCOCCNC(=O)COCCOCCNC(=O)CC[C@H](NC(=O)CCCCCCCCCCCCCCCCCCC(=O)O)C(=O)O)C(=O)N[C@@H](CC(C)C)C(=O)N[C@H](C(=O)N[C@@H](CCC(=O)O)C(=O)N[C@@H](C)C(=O)N[C@@H](C)C(N)=O)C(C)C) [SEQ ID NO: 213]	890 nM	6.1 -log M	0.014 nM	10.9 -log M			6 -log M	10.8 -log M
H[Aib]EGTFTSDVSELLEEA[Aib]LQRFLEK([AEEA-AEEA-γGlu-C20 diacid])LVEAA-NH2 [SEQ ID NO: 214]							6.1 -log M	10.9 -log M
H[Aib]EGTFTSDVSRLK([AEEA-AEEA-γGlu-C20 diacid])EEA[Aib]AQRFLEHLVEAA-NH2 [SEQ ID NO: 215]							6.3 -log M	11 -log M
